{
  "source": "patent US9469841B2",
  "about": "“Prodrug activation in cancer cells using molecular switches” (The Johns Hopkins University, priority 2008, dated 2016)",
  "key": {"[1]": {"system": "MBP317-347", "assay": "Effect of beta-cyclodextrin on maltose activation of switch MBP317-347", "assay_type": "biochemical", "protocol": "The rate of beta-lactam hydrolysis as a function of maltose (dots) follows the maltose-binding isotherm (blue). […] Initially, in the absence of any ligand, the rate of beta-lactam hydrolysis catalyzed by the switch is low. At about 5 minutes, maltose is added and the enzyme activity of the switch is turned on. At about 10 minutes, an excess of beta-cyclodextrin is added. This replaces maltose in the binding site and turns the enzyme activity of the switch off. At about 16 minutes, an excess of maltose is added which replaces beta-cyclodextrin and turns the enzyme activity of the switch back on.\nNatural allosteric proteins often have modest (<10-fold) differences in function between the effector-bound and effector-unbound states. However very large differences in activity between the two states would be advantageous for many applications of protein switches. […] Using an iterative strategy involving random circular permutation and random insertion several switches were created that approach being on/off in nature (6). […] The creation of these switches was facilitated by a new directed evolution algorithm for non-homologous recombination that was developed for efficiently exploring the sequence space comprised of the possible fusions of the two proteins. […]"}, "[2]": {"biological_target": "HIF-1a (Homo sapiens, UniProt Q16665)", "sequence (Q16665 786-826 limits assumed)": "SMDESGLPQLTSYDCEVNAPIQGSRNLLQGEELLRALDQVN", "sequence (Q09472 331-417 partner limits assumed)": "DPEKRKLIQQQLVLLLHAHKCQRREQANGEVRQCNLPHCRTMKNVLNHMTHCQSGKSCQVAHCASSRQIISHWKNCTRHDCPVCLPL", "settings": "cited from earlier work"}, "[3]": {"system": "E. coli cells", "assay": "MIC of ampicillin for E. coli cells expressing switch, with and without maltose", "assay_type": "cell-based", "settings": "E. coli cells expressing MBP or BLA separately"}, "[4]": {"system": "GIA39 E. coli cells", "assay": "Growth on \"negative selection\" minimal plates supplemented with 5FC", "assay_type": "cell-based", "design": "key: + = growth; − = no growth", "protocol": "Minimal media was used in the selection schemes and was based on a product mixture described by Sigma. For 1 L it containing 20 g of Select Agar (Sigma# A5054), 6.7 g of Yeast nitrogen base without amino acids (Sigma #Y0626), 1.92 g of Yeast synthetic drop-out without uracil (Sigma #Y1501), glucose to 2%, 1 mM IPTG and 50 μg/mL of chloramphenicol. For “negative” selection media, the above media was supplemented with 75 μg/mL or 25 μg/mL of 5FC and 1 μg/mL of uracil. For “positive” selection media, supplementation was with 25 μg/mL of cytosine, 1 mM arabinose and 100 μg/mL of ampicillin Each Bio-Assay dish contained 250 mL of selection media and each standard Petri dish contained 25 mL of media.\nThe selection scheme was developed to isolate library members whose CD activity is “off” in the absence of HIF-1a but “on” in the presence of HIF-1a. […] A GST-HIF-1a fusion was created that is under the control of the arabinose promoter on a plasmid that can coexist with the pDIM-C8 library plasmids. This “HIF-1a plasmid” is a variation of the pGEX plasmid and has ampicillin resistance. During selections, this HIF-1a plasmid will either be present to produce HIF-1a and activate the hybrid protein switches, or absent to avoid any production of HIF-1a.\nDuring the negative selection, no HIF-1a plasmid was present in the cells. Thus, hybrids that are active in the absence of HIF-1a will convert the 5FC into 5FU and kill the cell. But, hybrids that are not active in the absence of HIF-1a will be able to use the minimal amount of uracil provided and grow to form colonies. The negative selection was performed twice in succession using the Bio-Assay dish size plates (2 plates each time with about 600,000 cells plated on each plate). The first time the negative selection media contained 75 μg/mL 5FC. The colonies that grew on this plated were recovered and then underwent a second negative selection to help ensure that any pDIM-C8 plasmids encoding a wild-type yCD were removed from the library. The second negative selection was performed the same as the first except that 25 μg/mL of 5FC was used. The cells that survived the second negative selection were harvested and then aliquoted. One aliquot was used to isolate library plasmids that were used in the positive selection that followed.\nThis experiment confirmed that the switch genes conferred sensitivity to 5FC depends on induction of expression of HIF1-a (see Table 2, below).\nCells harboring the switch genes in pDIM-C8 or cells with the same plasmid together with the HIF1-a plasmid were plated on minimal media plates supplemented with 5FC (i.e. the negative selection conditions). […]"}},
  "note": "Like-named read-outs stand apart in the source and are kept apart here.",
  "data": [
    {"molecule": "OC[C@H]1O[C@@H]2O[C@H]3[C@H](O)[C@@H](O)[C@@H](O[C@H]4[C@H](O)[C@@H](O)[C@@H](O[C@H]5[C@H](O)[C@@H](O)[C@@H](O[C@H]6[C@H](O)[C@@H](O)[C@@H](O[C@H]7[C@H](O)[C@@H](O)[C@@H](O[C@H]8[C@H](O)[C@@H](O)[C@@H](O[C@H]1[C@H](O)[C@H]2O)O[C@@H]8CO)O[C@@H]7CO)O[C@@H]6CO)O[C@@H]5CO)O[C@@H]4CO)O[C@@H]3CO", "note": "[beta-cylcodextrin, beta-cyclodextrin]", "values": [
      {"measurement": "Effect on maltose activation of the switch", "setting": "[1]", "value": "antagonist preventing maltose-activation"}
    ]},
    {"molecule": "CH1 domain: CH1 domain of p300, 100 amino acids, binds HIF-1a", "values": [
      {"measurement": "Kd", "setting": "[2]; in vitro at 25° C., read-out: dissociation constant of the CH1 domain and HIF-1a", "value": "~120", "unit": "nM"},
      {"measurement": "Kd", "setting": "[2]; minimal domains CH1 and C-TAD of HIF-1a, read-out: Kd", "value": 120, "unit": "nM"}
    ]},
    {"molecule": "BLA: the enzyme TEM-1 beta-lactamase (protein, UniProt P62593 24-286, looked up) Beta-lactamase TEM: HPETLVKVKDAEDQLGARVGYIELDLNSGKILESFRPEERFPMMSTFKVLLCGAVLSRVDAGQEQLGRRIHYSQNDLVEYSPVTEKHLTDGMTVRELCSAAITMSDNTAANLLLTTIGGPKELTAFLHNMGDHVTRLDRWEPELNEAIPNDERDTTMPAAMATTLRKLLTGELLTLASRQQLIDWMEADKVAGPLLRSALPAGWFIADKSGAGERGSRGIIAALGPDGKPSRIVVIYTTGSQATMDERNRQIAEIGASLIKHW", "values": [
      {"measurement": "Effect of maltose on MIC of ampicillin", "setting": "[3]", "value": "not affect by maltose"}
    ]},
    {"molecule": "yCD: yeast cytosine deaminase containing the A23L/V108I/I140L mutations; positive control (protein, UniProt Q12178 1-158, looked up, variant A23L V108I I140L) Cytosine deaminase: MVTGGMASKWDQKGMDIAYEEALLGYKEGGVPIGGCLINNKDGSVLGRGHNMRFQKGSATLHGEISTLENCGRLEGKVYKDTTLYTTLSPCDMCTGAIIMYGIPRCVIGENVNFKSKGEKYLQTRGHEVVVVDDERCKKLMKQFIDERPQDWFEDIGE", "values": [
      {"measurement": "Growth on \"negative selection\" minimal plates supplemented with 75 μg/ml 5FC", "setting": "[4]; w/ HIF1-a plasmid, 1 mM arabinose", "value": "−"},
      {"measurement": "Growth on \"negative selection\" minimal plates supplemented with 75 μg/ml 5FC", "setting": "[4]; w/ HIF1-a plasmid, No arabinose", "value": "−"},
      {"measurement": "Growth on \"negative selection\" minimal plates supplemented with 75 μg/ml 5FC", "setting": "[4]; w/o HIF1-a plasmid, 1 mM arabinose", "value": "−"},
      {"measurement": "Growth on \"negative selection\" minimal plates supplemented with 75 μg/ml 5FC", "setting": "[4]; w/o HIF1-a plasmid, No arabinose", "value": "−"}
    ]}
  ]
}
